Assay [1] has as its system Smad3 phosphorylation (canonical TGFβ signaling). Put plainly: Smad3 phosphorylation in serum starved IMR90 fibroblasts (Western blot). The conditions noted are these: for Smad3 phosphorylation: serum starved IMR90, ~30 nM protein, 30 min, low serum media. The format is cell-based, human. On the procedure:
(§1) IMR90 cells and MLEC-TGFβ cells were generally treated for 30 min, 24 h, or 48 h in low serum media containing 0.5% FBS and 1% penicillin/streptomycin and incubated in a 5% CO2 atmosphere at 37° C. Cells were treated with 3.75 μg/ml (approximately 30 nM) rACLP (full length, Tsp, or C-terminal) or 1 nM TGFβ (R&D) (as a positive control), except where indicated. Cells treated for 30 min were serum starved in low serum media overnight preceding treatment.
rACLP stimulates canonical TGFβ signaling (Published Tumelty et al JBC 2014). Because ACLP increases TGFβ signaling in a reporter assay, the role of ACLP in canonical TGFβ signaling was investigated in detail. In pulmonary fibroblasts, TGFβ promotes the phosphorylation of Smad3 which then binds to Smad4 and translocates into the nucleus to promote transcription of myofibroblast marker genes (4,5). Therefore, the effects of ACLP on Smad3 phosphorylation were measured. Serum starved IMR90 cells were treated with rACLP for 15, 30, 45, or 60 min, or 24 h (FIG. 3) (3).
Serum starved IMR90 human lung fibroblasts were treated with equivalent molar amounts (˜30 nM) of purified full-length, Tsp repeat domain, or C-terminal protein for 30 min in low serum media (FIG. 6).
Background: A western blot detects proteins with antibodies after separation by electrophoresis.

The subject of assay [2] is TGFβ signaling activity (PAI-1 promoter luciferase). Put plainly: MLEC-TGFβ activity assay (PAI-1 promoter luciferase reporter). The format is cell-based, mink. The following applies: MLEC-TGFβ cells, treated overnight in low serum media. On the procedure:
Cell Treatments. IMR90 human lung fibroblasts (ATCC) and AD293 cells (Stratagene) were grown in DMEM supplemented with 10% FBS and 1% penicillin/streptomycin and incubated in a 5% CO2 atmosphere at 37° C. Mink lung epithelial cells stably transfected with the plasminogen activator inhibitor 1 (PAI-1) reporter construct driving luciferase expression (MLEC-TGFβ) (2) were grown in DMEM supplemented with 10% FBS and 1% penicillin/streptomycin, maintained in 250 μg/ml G418, and incubated in a 5% CO2 atmosphere at 37° C. IMR90 cells and MLEC-TGFβ cells were generally treated for 30 min, 24 h, or 48 h in low serum media containing 0.5% FBS and 1% penicillin/streptomycin and incubated in a 5% CO2 atmosphere at 37° C. Cells were treated with 3.75 μg/ml (approximately 30 nM) rACLP (full length, Tsp, or C-terminal) or 1 nM TGFβ (R&D) (as a positive control), except where indicated. Cells treated for 30 min were serum starved in low serum media overnight preceding treatment. MLEC-TGFβ activity assay. To measure TGFβ signaling activity, 1×10^4 MLEC-TGFβ cells/well were plated on white 96-well cell culture treated plates and allowed to adhere overnight. […] Luciferase activity was measured on an auto-injecting BioTek Synergy HT plate reader using 50 μl of luciferase assay substrate (Promega).

Assay [3] concerns IMR90 human lung fibroblast cells. The assay is described as follows: SMA and collagen I protein expression in IMR90 fibroblasts treated with recombinant ACLP proteins (Western blot). It counts as cell-based. The conditions noted are these: IMR90, low serum media, 3.75 μg/ml (~30 nM) protein, 48 h, vs control cells. On the procedure:
Cell Treatments. IMR90 human lung fibroblasts (ATCC) and AD293 cells (Stratagene) were grown in DMEM supplemented with 10% FBS and 1% penicillin/streptomycin and incubated in a 5% CO2 atmosphere at 37° C. Mink lung epithelial cells stably transfected with the plasminogen activator inhibitor 1 (PAI-1) reporter construct driving luciferase expression (MLEC-TGFβ) (2) were grown in DMEM supplemented with 10% FBS and 1% penicillin/streptomycin, maintained in 250 μg/ml G418, and incubated in a 5% CO2 atmosphere at 37° C.
as §1
Recombinant ACLP induces myofibroblast gene and protein expression. To further define the role of ACLP in the fibroblast to myofibroblast differentiation process, IMR90 human lung fibroblast cells were treated with rACLP. […] IMR90 cells were grown in media containing 3.75 μg/ml (30 nM) rACLP or 1 nM TGFβ as a positive control (FIG. 2A). […] These findings indicate that ACLP promotes the fibroblast to myofibroblast differentiation because it stimulates expression of SMA and collagen 1(3).
The N-terminal domain of ACLP promotes myofibroblast marker protein expression. Because the inventors discovered that the N-terminal Tsp motifs of ACLP (e.g. the PFD) is the domain responsible for promoting TGFβ signaling, the inventors next assessed which domain of ACLP is responsible for increased SMA and collagen I expression in lung myofibroblasts. IMR90 lung fibroblasts were treated in low serum media containing equal molar amounts of full-length protein, the pro-fibrotic domain (PFD) of ACLP, and C-terminal ACLP (˜30 nM) for 48 h (FIG. 7).

A further assay addresses T1, TGFβ Receptor II (TβRII) (Mus musculus, UniProt Q62312).
T1 construct: contains the extracellular domain of mouse TβRII fused to the Fc domain of human IgG; purchased R&D
T1 sequence (Q62312 24-166 limits assumed): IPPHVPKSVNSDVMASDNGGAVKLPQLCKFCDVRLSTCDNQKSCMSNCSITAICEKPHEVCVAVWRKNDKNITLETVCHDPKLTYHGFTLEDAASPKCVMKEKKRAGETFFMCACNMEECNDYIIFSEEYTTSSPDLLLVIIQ
The assay is described as follows: ACLP binding assay: biotinylated rACLP on streptavidin plate incubated with TβRII Fc. The conditions noted are these: immobilized rACLP vs control-coated wells, p<0.05. On the procedure: ACLP binding assays. To determine if ACLP binds to TGFβ Receptor II (TORII), ACLP was biotinylated using an EZ-Link Sulfo-NHS-LC-Biotin kit (Thermo Scientific 21327) according to manufacturer's instructions. Briefly, rACLP (0.267 nM) was incubated with 20 fold molar excess of biotin for 30 min at room temperature. The protein was then dialyzed back into DPBS overnight. Biotinylated ACLP (1 μg/well) was immobilized on a PIERCE™ Streptavidin coated High-Binding Capacity Plate (Thermo-Scientific PI-15500) overnight at 4° C. in binding buffer made up of PBS with Mg^2+, Ca^2+, 0.1% BSA, and 0.05% Tween 20). The next day, the plates were washed with binding buffer, blocked with the same buffer containing 1% BSA at room temperature for 1 h, followed by incubation with increasing amounts of TβRII Fc (0, 10, 100, 1000 ng). Binding was detected with Human-IgG-HRP (GE Healthcare Life Sciences) followed by incubation with 3,3′,5,5′-Tetramethylbenzidine (TMB, eBioscience). The reaction was quenched with 2 M H2SO4 and absorbance at 450 nm was measured on the BioTek Synergy HT system.
ACLP binds to the TGFβ-receptor II. […] The TβRII Fc chimera contains the extracellular domain of mouse TβRII fused to the Fc domain of human IgG and has been used as a global inhibitor of TGFβ (6).

The next assay deals with TGFβ. Put plainly: ACLP interaction with TGFβ (cell-free binding assay; latent TGFβ activation; data not shown).
The test system of assay [4] is Normal murine mammary gland epithelial cells (NMuMg). Put plainly: EMT marker qPCR in NMuMg cells treated with rACLP. It counts as cell-based, mouse. On the procedure: Normal murine mammary gland epithelial cells (NMuMg) were treated with rACLP (30 nM) or TGFβ (1 nM) and RNA was analyzed by qPCR after 48 hours.

B1: C-terminal ACLP: recombinant C-terminal discoidin and carboxypeptidase domains of mouse ACLP, amino acids 374-1128 (protein)
chain: IKCPPIGMESHRIEDNQIRASSMLRHGLGAQRGRLNMQAGANEDDYYDGAWCAEDESQTQWIEVDTRRTTRFTGVITQGRDSSIHDDFVTTFFVGFSNDSQTWVMYTNGYEEMTFYGNVDKDTPVLSELPEPVVARFIRIYPLTWNGSLCMRLEVLGCPVTPVYSYYAQNEVVTTDSLDFRHHSYKDMRQLMKAVNEECPTITRTYSLGKSSRGLKIYAMEISDNPGDHELGEPEFRYTAGIHGNEVLGRELLLLLMQYLCQEYRDGNPRVRNLVQDTRIHLVPSLNPDGYEVAAQMGSEFGNWALGLWTEEGFDIFEDFPDLNSVLWAAEEKKWVPYRVPNNNLPIPERYLSPDATVSTEVRAIISWMEKNPFVLGANLNGGERLVSYPYDMARTPSQEQLLAEALAAARGEDDDGVSEAQETPDHAIFRWLAISFASAHLTMTEPYRGGCQAQDYTSGMGIVNGAKWNPRSGTFNDFSYLHTNCLELSVYLGCDKFPHESELPREWENNKEALLTFMEQVHRGIKGVVTDEQGIPIANATISVSGINHGVKTASGGDYWRILNPGEYRVTAHAEGYTSSAKICNVDYDIGATQCNFILARSNWKRIREILAMNGNRPILRVDPSRPMTPQQRRMQQRRLQYRLRMREQMRLRRLNSTAGPATSPTPALMPPPSPTPAITLRPWEVLPTTTAGWEESETETYTEVVTEFETEYGTDLEVEEIEEEEEEEEEEMDTGLTFPLTTVETYTVNFGDF
modifications: left off: small tags and cut ends
As for B1, the Smad3 phosphorylation result in assay [1] was “did not”. Moreover, the “amount that stimulated luciferase activity” value in assay [2] was above 25 µg/mL.

B2: rACLP: recombinant full length mouse ACLP (amino acids 26-1128), BM40 signal sequence, C-terminal myc-His tag, from AD293 cells (protein)
chain: QTVLTDDEIEEFLEGFLSELETQSPPREDDVEVQPLPEPTQRPRKSKAGGKQRADVEVPPEKNKDKEKKGKKDKGPKATKPLEGSTRPTKKPKEKPPKATKKPKEKPPKATKKPKEKPPKATKKPKEKPPKATKRPSAGKKFSTVAPLETLDRLLPSPSNPSAQELPQKRDTPFPNAWQGQGEETQVEAKQPRPEPEEETEMPTLDYNDQIEKEDYEDFEYIRRQKQPRPTPSRRRLWPERPEEKTEEPEERKEVEPPLKPLLPPDYGDSYVIPNYDDLDYYFPHPPPQKPDVGQEVDEEKEEMKKPKKEGSSPKEDTEDKWTVEKNKDHKGPRKGEELEEEWAPVEKIKCPPIGMESHRIEDNQIRASSMLRHGLGAQRGRLNMQAGANEDDYYDGAWCAEDESQTQWIEVDTRRTTRFTGVITQGRDSSIHDDFVTTFFVGFSNDSQTWVMYTNGYEEMTFYGNVDKDTPVLSELPEPVVARFIRIYPLTWNGSLCMRLEVLGCPVTPVYSYYAQNEVVTTDSLDFRHHSYKDMRQLMKAVNEECPTITRTYSLGKSSRGLKIYAMEISDNPGDHELGEPEFRYTAGIHGNEVLGRELLLLLMQYLCQEYRDGNPRVRNLVQDTRIHLVPSLNPDGYEVAAQMGSEFGNWALGLWTEEGFDIFEDFPDLNSVLWAAEEKKWVPYRVPNNNLPIPERYLSPDATVSTEVRAIISWMEKNPFVLGANLNGGERLVSYPYDMARTPSQEQLLAEALAAARGEDDDGVSEAQETPDHAIFRWLAISFASAHLTMTEPYRGGCQAQDYTSGMGIVNGAKWNPRSGTFNDFSYLHTNCLELSVYLGCDKFPHESELPREWENNKEALLTFMEQVHRGIKGVVTDEQGIPIANATISVSGINHGVKTASGGDYWRILNPGEYRVTAHAEGYTSSAKICNVDYDIGATQCNFILARSNWKRIREILAMNGNRPILRVDPSRPMTPQQRRMQQRRLQYRLRMREQMRLRRLNSTAGPATSPTPALMPPPSPTPAITLRPWEVLPTTTAGWEESETETYTEVVTEFETEYGTDLEVEEIEEEEEEEEEEMDTGLTFPLTTVETYTVNFGDF
modifications: left off: small tags and cut ends
As for B2, in assay [3], the SMA protein expression result is “induced an increase” and the collagen protein expression result was “induced an increase”. In assay [3] (listed as Full-length ACLP), the SMA protein expression entry is “promoted an increase” and the collagen protein expression entry is “promoted an increase”. Further, the “time at which Smad3 phosphorylation was first detected” value in assay [1] (serum starved IMR90, 3.75 μg/ml rACLP) amounted to 15 min. In assay [1] (serum starved IMR90, 3.75 μg/ml rACLP, 15-60 min), the “Smad3 phosphorylation, short-term treatment” value is “stimulated Smad3 phosphorylation”. The “Smad3 phosphorylation after 24 h” value in assay [1] (serum starved IMR90, 3.75 μg/ml rACLP, 24 h) is reported as “not detectable”. The Smad3 phosphorylation result in assay [1] is “stimulated Smad3 phosphorylation”. For the same molecule, the “binding to the TβRII Fc chimera (absorbance at 450 nm)” value in the assay with TGFβ Receptor II (TβRII) is listed as “significantly more binding”. Also, in the assay on TGFβ, the “activation of latent TGFβ” value is on record as “did not appear to”. Moreover, in the assay on TGFβ (cell-free binding assay), the “direct interaction with TGFβ” value is “did not appear to directly interact”. The cellular morphology entry in assay [4] (ACLP treated cells, consistent with EMT) is recorded as “change in cellular morphology”. In assay [4] (NMuMg, rACLP 30 nM, 48 hours), the “epithelial marker occludin (qPCR)” value is listed as “decreasing”, the “mesenchymal marker SMA (qPCR)” value was “enhanced”, the “mesenchymal marker Snail (qPCR)” value is listed as “enhanced” and the “mesenchymal marker fibronectin (qPCR)” value is reported as “enhanced”.

The values are drawn from patent publication US12139542B2, “Inhibitors of aortic carboxypeptidase-like protein (ACLP)” (TRUSTEES OF BOSTON UNIVERSITY, priority 2014, dated 2024).
